The target of this data set is T1, DesT (selenomethionine) (Pseudomonas aeruginosa, UniProt Q9HUS3 1-209).
T1 sequence: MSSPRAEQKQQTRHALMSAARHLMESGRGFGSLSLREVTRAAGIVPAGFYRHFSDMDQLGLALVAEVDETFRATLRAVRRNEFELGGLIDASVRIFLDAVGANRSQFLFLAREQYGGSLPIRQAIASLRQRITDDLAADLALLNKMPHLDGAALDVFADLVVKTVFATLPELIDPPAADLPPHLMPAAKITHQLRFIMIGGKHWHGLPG
Description: X-ray crystallography.

B1: desCB promoter 30mer crystallization duplex (dsDNA)
DNA 1: TTACATCAGTGAACGCTTGTTGACTCGATTG
DNA 2: CAATCGAGTCAACAAGCGTTCACTGATGTA
With B1, the binding result was “binds”.

Source of the values: publication PMC2935088.
